{"source": "patent US20220119469", "key": {"[1]": {"molecular_target": "T1, Spy-C cMyBP-C (cMyBP-C of Spy-C mice with a TEV protease recognition site and a SpyTag sequence in the linker between domains C7 and C8), uncut", "T1 chain": "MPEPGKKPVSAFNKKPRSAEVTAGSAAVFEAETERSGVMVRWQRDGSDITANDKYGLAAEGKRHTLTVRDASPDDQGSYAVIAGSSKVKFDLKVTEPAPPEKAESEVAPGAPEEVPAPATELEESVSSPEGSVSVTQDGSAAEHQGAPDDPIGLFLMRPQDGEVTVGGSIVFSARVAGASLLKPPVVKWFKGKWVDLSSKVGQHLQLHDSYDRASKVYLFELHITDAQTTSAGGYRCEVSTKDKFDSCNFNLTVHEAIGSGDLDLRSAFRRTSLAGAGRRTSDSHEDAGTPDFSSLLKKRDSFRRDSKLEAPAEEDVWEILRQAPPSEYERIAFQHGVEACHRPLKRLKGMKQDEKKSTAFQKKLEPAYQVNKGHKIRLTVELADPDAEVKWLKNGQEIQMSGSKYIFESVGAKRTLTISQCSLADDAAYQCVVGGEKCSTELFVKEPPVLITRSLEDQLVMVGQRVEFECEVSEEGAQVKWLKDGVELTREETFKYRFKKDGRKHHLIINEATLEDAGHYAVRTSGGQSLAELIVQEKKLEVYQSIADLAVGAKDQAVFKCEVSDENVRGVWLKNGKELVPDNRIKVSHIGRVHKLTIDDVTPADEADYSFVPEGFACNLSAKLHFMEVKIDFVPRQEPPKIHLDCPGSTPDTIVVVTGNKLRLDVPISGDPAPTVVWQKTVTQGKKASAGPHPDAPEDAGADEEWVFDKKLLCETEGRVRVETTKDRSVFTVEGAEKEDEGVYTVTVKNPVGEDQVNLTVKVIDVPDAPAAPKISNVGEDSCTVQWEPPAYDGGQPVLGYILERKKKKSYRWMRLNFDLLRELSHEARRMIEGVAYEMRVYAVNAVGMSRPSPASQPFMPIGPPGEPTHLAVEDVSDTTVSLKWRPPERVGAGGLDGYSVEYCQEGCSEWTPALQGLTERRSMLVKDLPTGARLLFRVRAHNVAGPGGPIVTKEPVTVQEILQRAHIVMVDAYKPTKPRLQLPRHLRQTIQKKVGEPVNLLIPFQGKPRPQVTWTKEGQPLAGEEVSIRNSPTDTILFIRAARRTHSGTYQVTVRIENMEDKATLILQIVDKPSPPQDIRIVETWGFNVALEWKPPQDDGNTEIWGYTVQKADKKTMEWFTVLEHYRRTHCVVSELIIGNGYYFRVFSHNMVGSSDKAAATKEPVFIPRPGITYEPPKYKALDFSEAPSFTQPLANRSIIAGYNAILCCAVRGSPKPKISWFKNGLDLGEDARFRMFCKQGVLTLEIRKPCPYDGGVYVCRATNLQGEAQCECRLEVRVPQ"}, "[2]": {"molecular_target": "endogenous MyBP-C of homozygous soleus tissue (with TEV site and SpyTag), uncut"}, "[3]": {"molecular_target": "endogenous MyBP-C in wild type soleus tissue"}}, "data": [{"protein": "TEV protease (protein) GESLFKGPRDYNPISSTICHLTNESDGHTTSLYGIGFGPFIITNKHLFRRNNGTLLVQSLHGVFKVKNTTTLQQHLIDGRDMIIIRMPKDFPPFPQKLKFREPQREERICLVTTNFQTKSMSSMVSDTSCTFPSSDGIFWKHWIQTKDGQCGSPLVSTRDGFIVGIHSASNFTNTNNYFTSVPKNFMELLTNQEAQQWVSGWRLNADSVLWGGHKVFMSKPEEPFQPVKEATQLMN", "values": [{"measurement": "cleavage in permeabilized myocytes", "setting": "[1]", "value": "Spy-C cMyBP-C was cleaved at the TEV site"}, {"measurement": "decrease in molecular weight on western blot", "setting": "[2]", "value": "endogenous MyBP-C domains C1-C7 in homozygous tissue are cleaved with TEV protease (TEVp), shown by a decrease in molecular weight"}, {"measurement": "size on western blot", "setting": "[3]", "value": "the size of endogenous MyBP-C in wild type tissue is unaffected by TEVp, washing and addition of replacement protein"}]}]}
